Laboratory results from patent US20260207798A1, “CYCLIC PEPTIDES AS PET IMAGING AGENTS OF GRANZYME B” (priority 2022, published 2026).
Bridge positions count the residues as written; N and C are the ends. Square brackets hold non-standard residues; d marks the D form. Primed or numbered codes have the meaning given here. Peptide text beside a SMILES is read from it. I, II: the chains in the order shown. * marks the point of attachment. NOTA‑1 = 1,4,7-triazacyclononane-N,N',N''-triacetic acid phenyl thiourea; X1 = O=C(O)CN1CCN(CC(=O)O)CC(Cc2ccc(NC(=S)*)cc2)N(CC(=O)O)CC1; Pro(trans-4-F) = O=C(O)[C@@H]1C[C@@H](F)CN1; PEG2′ = not defined here

Assays:
Human Granzyme B [1] = target: Human Granzyme B (Homo sapiens, UniProt P10144); assay: Granzyme B biochemical inhibition assay (fluorescence); conditions: 8 nM granzyme B; values below 8 nM reported as <8 nM
Sequence of Human Granzyme B (P10144 21-247): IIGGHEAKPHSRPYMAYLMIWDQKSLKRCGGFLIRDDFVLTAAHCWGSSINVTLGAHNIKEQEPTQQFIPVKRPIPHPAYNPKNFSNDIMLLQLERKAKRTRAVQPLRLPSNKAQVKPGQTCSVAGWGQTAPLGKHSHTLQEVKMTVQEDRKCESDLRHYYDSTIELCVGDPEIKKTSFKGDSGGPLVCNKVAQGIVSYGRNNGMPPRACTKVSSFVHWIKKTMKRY
Procedure: Compounds to be tested as inhibitors were manually prepared in a 2-fold serial dilutions in DMSO, spanning 200 uM to 0.39 uM in a Labcyte Echo qualified low dead volume 384-well plate. Then an ECHO acoustic liquid handler was used to dispense 125 nL of each compound from 384-well plate into a PerkinElmer Proxiplate-384 Plus F assay plate. For the positive control of inhibitor, (S)-3-((3S,6S)-3-((2S,3S)-2-acetamido-3-methylpentanamido)-4-oxo-1,2,3,4,6,7-hexahydroazepino[3,2,1-hi]indole-6-carboxamido)-4-oxobutanoic acid (see C. A. Willoughby et al./Bioorg. Med. Chem. Lett. 12 (2002) 2197-2200 2199) was used at 2 uM assay concentration. For no inhibition control, DMSO was used. Each compound was run in duplicate.
Once the compounds were dispensed in the plates, enzyme mix and substrate mix were prepared. Enzyme mix was prepared by preparing a mixture of 300 uL granzyme B (final concentration 8 nM) and 10.8 mL of assay buffer (from Sigma kit). Substrate mix was prepared by combining 500 uL substrate (from Sigma kit) and 3 mL of assay buffer (from Sigma kit). Enzyme mixture was loaded on BioRaptr and 9.25 uL were added to each well of the assay plate containing compounds. The plate was incubated at room temperature under a metal gasket cover for 30 minutes. Subsequently, 3.125 uL of substrate mix were added to each well using the BioRaptr, reaching a final assay volume of 12.5 uL, and the plate was monitored using a Pherastar FS by 1 read per minute for 30 minutes in fluorescence mode, excitation wavelength is 400 nm and emission wavelength is 510 nm.
The data analysis was performed first in excel, where the slopes of the measured fluorescence from each sample were determined using MARS software from BMG LABTECH. These rates were then multiplied by 10,000 for visualization purposes. The rates, multiplied by 10,000, were normalized to 0% and 100% activity based on the average values of the samples with either 2 uM inhibitor (S)-3-((3S,6S)-3-((2S,3S)-2-acetamido-3-methylpentanamido)-4-oxo-1,2,3,4,6,7-hexahydroazepino[3,2,1-hi]indole-6-carboxamido)-4-oxobutanoic acid, or no inhibitor respectively. All samples were then normalized against these values using the formula={100−[(sample−100% inhib)/0% inhib]}*100 to achieve a normalized percent inhibition. Normalized percent inhibition versus concentration inhibitor was then plotted in Graphpad Prism version 9.0.0 and a variable slope (four parameters) fit was calculated for each inhibitor.

[2] = target: human Granzyme B (hGranzyme B) (Homo sapiens, UniProt P10144); assay: Surface plasmon resonance (SPR) binding kinetics to hGranzyme B; conditions: 25° C., 1:1 binding model, KD=kd/ka; read-out: Granzyme B SPR Kd
Procedure: The kinetics of test peptide binding to human Granzyme B (hGranzyme B) was determined by SPR. All experiments were performed at 25° C. using the Biacore 8k+ instrument (Cytiva, Marlborough, MA). The Biacore 8k+ Insight Evaluation Software Version 3.0 was used to fit the data with a 1:1 binding model to determine the association rate constant ka (M^−1s^−1, where “M” ~equals molar and “s” ~equals seconds) and the dissociation rate constant kd (s^−1). These rate constants were used to calculate the equilibrium dissociation constant. KD (M)=kd/ka.
To measure the binding kinetics of peptides of interest, surfaces were prepared by a capture method to a Series S Streptavidin (SA) chip using a 1×HBS-EP+ running buffer (Cytiva). hGranzyme B was diluted to 10 μg/mL in IX HBS-EP+ and flowed over spot 2 of each flow cell on the chip at a flow rate of 10 ul/min for 20 s to achieve a level of capture of ~1100 RU. An unmodified spot 1 of each flow cell was used as a matrix binding control or reference surface. Binding kinetics were measured using single cycle kinetics at 25° C. by injecting 5 concentrations with 3-fold serial dilutions of test peptides from 0.01 μM to 1 μM. Compound dilutions were performed manually in a running buffer containing 1×HBS-EP+(Cytiva), and a final concentration of 2% DMSO. The interaction analyses over hGranzyme B, were performed using a 120 s association time and a 900 s dissociation time. All experiments were conducted at a flow rate of 50 μL/min with a data collection rate of 10 Hz.
Peptide dilution series included 2 zero concentration points (no compound) which were averaged and subtracted from the peptide concentration injection as DMSO control responses. Binding data acquired from the reference surface (matrix binding control) were subtracted from the binding data for hGranzyme B surface on the chip to determine specific binding. Next, the association phase data were solvent corrected to account for any signal fluctuation throughout the experiment due to subtle DMSO concentration differences. Corrected response data were analyzed using the Biacore 8k+ Evaluation Software Version 3.0 according to the manufacturer. SPR data for representative compounds of the disclosure are found in Table 8.

human Granzyme B [3] = target: T1, human Granzyme B (human, UniProt P10144 21-247); assay: cell-based or functional assay
T1 sequence (P10144 21-247 limits assumed): as the sequence (P10144 21-247) above

human Granzyme B [4] = target: T1, human Granzyme B; assay: SPR, Biacore 8k+, hGranzyme B captured on SA chip, single cycle kinetics, 1:1 model

Molecule | IC50 (Human Granzyme B [1]) [nM] | Human Granzyme B IC50 (fluorogenic substrate enzyme inhibition assay) (human Granzyme B [3]) [nM] | Kd (human Granzyme B [4]) [nM] | other results
C[C@@H]1NC(=O)[C@H](CO)NC(=O)[C@H](CCC(N)=O)NC(=O)[C@H](CC(=O)O)NC(=O)[C@H](CCC(=O)O)NC(=O)[C@H](Cc2ccccc2)NC(=O)[C@H](CC(N)=O)NC(=O)[C@H](Cc2ccccc2)NC(=O)CSC[C@@H](C(=O)NCC(N)=O)NC(=O)[C@@H]2CCCN2C(=O)[C@H](CCC(N)=O)NC(=O)[C@H](Cc2c[nH]c3ccccc23)NC(=O)[C@H]([C@@H](C)O)NC(=O)[C@H](CC(=O)O)NC1=O [Compound 1a, *F.N.F.E.D.Q.S.A.D.T.W.Q.P.*C.G.NH2] ({CH2CO}-FNFEDQSADTWQPCG-NH2; thioether N-14) | < 8 |  |  | 
C[C@@H]1NC(=O)[C@H](CO)NC(=O)[C@H](CCC(N)=O)NC(=O)[C@H](CC(=O)O)NC(=O)[C@H](CCC(=O)O)NC(=O)[C@H](Cc2ccccc2)NC(=O)[C@H](CC(N)=O)NC(=O)[C@H](Cc2ccccc2)NC(=O)CSC[C@@H](C(=O)NCC(=O)NCC(=O)N[C@@H](CCCCNC(=S)Nc2ccc(CC3CN(CC(=O)O)CCN(CC(=O)O)CCN3CC(=O)O)cc2)C(N)=O)NC(=O)[C@@H]2CCCN2C(=O)[C@H](CCC(N)=O)NC(=O)[C@H](Cc2c[nH]c3ccccc23)NC(=O)[C@H]([C@@H](C)O)NC(=O)[C@H](CC(=O)O)NC1=O (stereo partly shown) [Compound 2a, *F.N.F.E.D.Q.S.A.D.T.W.Q.P.*C.G.G.K(NOTA-1).NH2] ({CH2CO}-FNFEDQSADTWQPCGGK(X1)-NH2; thioether N-14) | < 8 |  |  | 
C[C@@H](O)[C@@H]1NC(=O)[C@H](CC(=O)O)NC(=O)[C@@H]2C[C@@H](F)CN2C(=O)[C@H](CO)NC(=O)[C@H](CCC(N)=O)NC(=O)[C@H](CC(=O)O)NC(=O)[C@H](CCC(=O)O)NC(=O)[C@H](Cc2ccccc2)NC(=O)[C@H](CC(N)=O)NC(=O)[C@H](Cc2ccccc2)NC(=O)CSC[C@@H](C(=O)NCC(=O)NCC(=O)N[C@@H](CCCCN)C(N)=O)NC(=O)[C@@H]2CCCN2C(=O)[C@H](CCC(N)=O)NC(=O)[C@H](Cc2c[nH]c3ccccc23)NC1=O [Compound 87a, *F.N.F.E.D.Q.S.Prot4F.D.T.W.Q.P.*C.G.G.K.NH2] ({CH2CO}-FNFEDQS[Pro(trans-4-F)]DTWQPCGGK-NH2; thioether N-14) |  |  |  | Kd [2]: 4.2 nM
Compound 5a (linker I:17-II:17 via PEG2′; also: dimer of two macrocycles linked by PEG2 between Lys17 side chains, thioether at chain A 14 to a chain's N-terminus, thioether at chain B 14 to a chain's N-terminus, Dimer of two macrocycles linked by PEG2) peptide 1: {‑CH2C(O)‑}-FNFEDQSADTWQPCGGK-NH2 peptide 2: {‑CH2C(O)‑}-FNFEDQSADTWQPCGGK-NH2 |  | < 8 |  | 
{CH2CO}-FNFEDQS[Pro(trans-4-F)]DTWQPCGGK(NOTA‑1)-NH2 (thioether N-14) [Compound 12a] |  | < 8 | 1.6 | 
{CH2CO}-FNFEDQSADTWQPCGGK(NOTA‑1)-NH2 (thioether N-14) [Compound 2a] |  | < 8 | 13.5 | 
{CH2CO}-FNFEDQSADTWQPCG-NH2 (thioether N-14; SMILES C[C@@H]1NC(=O)[C@H](CO)NC(=O)[C@H](CCC(N)=O)NC(=O)[C@H](CC(=O)O)NC(=O)[C@H](CCC(=O)O)NC(=O)[C@H](Cc2ccccc2)NC(=O)[C@H](CC(N)=O)NC(=O)[C@H](Cc2ccccc2)NC(=O)CSC[C@@H](C(=O)NCC(N)=O)NC(=O)[C@@H]2CCCN2C(=O)[C@H](CCC(N)=O)NC(=O)[C@H](Cc2c[nH]c3ccccc23)NC(=O)[C@H]([C@@H](C)O)NC(=O)[C@H](CC(=O)O)NC1=O) [Compound 1a] |  | < 8 | 19.8 | 

Second part, led by results:

IC50 (Human Granzyme B [1]) [nM] | Human Granzyme B IC50 (fluorogenic substrate enzyme inhibition assay) (human Granzyme B [3]) [nM] | Kd (human Granzyme B [4]) [nM] | Molecule | other results
< 8 |  |  | C[C@@H](O)[C@@H]1NC(=O)[C@H](CC(=O)O)NC(=O)[C@@H]2C[C@@H](F)CN2C(=O)[C@H](CO)NC(=O)[C@H](CCC(N)=O)NC(=O)[C@H](CC(=O)O)NC(=O)[C@H](CCC(=O)O)NC(=O)[C@H](Cc2ccccc2)NC(=O)[C@H](CC(N)=O)NC(=O)[C@H](Cc2ccccc2)NC(=O)CSC[C@@H](C(=O)NCC(=O)NCC(=O)N[C@@H](CCCCNC(=S)Nc2ccc(CC3CN(CC(=O)O)CCN(CC(=O)O)CCN3CC(=O)O)cc2)C(N)=O)NC(=O)[C@@H]2CCCN2C(=O)[C@H](CCC(N)=O)NC(=O)[C@H](Cc2c[nH]c3ccccc23)NC1=O (single isomer, unassigned) [Compound 12a, *F.N.F.E.D.Q.S.Prot4F.D.T.W.Q.P.*C.G.G.K(NOTA-1).NH2] | 
< 8 |  |  | C[C@@H](O)[C@@H]1NC(=O)[C@H](CC(=O)O)NC(=O)[C@@H]2CCCN2C(=O)[C@H](CO)NC(=O)[C@H](CCC(N)=O)NC(=O)[C@H](CC(=O)O)NC(=O)[C@H](CCC(=O)O)NC(=O)[C@H](Cc2ccccc2)NC(=O)[C@H](CC(N)=O)NC(=O)[C@H](Cc2ccccc2)NC(=O)CSC[C@@H](C(=O)NCC(N)=O)NC(=O)[C@@H]2CCCN2C(=O)[C@H](CCC(N)=O)NC(=O)[C@H](Cc2c[nH]c3ccccc23)NC1=O [Compound 25a, *F.N.F.E.D.Q.S.P.D.T.W.Q.P.*C.G.NH2] ({CH2CO}-FNFEDQSPDTWQPCG-NH2; thioether N-14) | 
< 8 |  |  | C[C@@H](O)[C@@H]1NC(=O)[C@H](CC(=O)O)NC(=O)[C@@H]2C[C@@H](F)CN2C(=O)[C@H](CO)NC(=O)[C@H](CCC(N)=O)NC(=O)[C@H](CC(=O)O)NC(=O)[C@H](CCC(=O)O)NC(=O)[C@H](Cc2ccccc2)NC(=O)[C@H](CC(N)=O)NC(=O)[C@H](Cc2ccccc2)NC(=O)CSC[C@@H](C(=O)NCC(N)=O)NC(=O)[C@@H]2CCCN2C(=O)[C@H](CCC(N)=O)NC(=O)[C@H](Cc2c[nH]c3ccccc23)NC1=O [Compound 38a, *F.N.F.E.D.Q.S.Prot4F.D.T.W.Q.P.*C.G.NH2] ({CH2CO}-FNFEDQS[Pro(trans-4-F)]DTWQPCG-NH2; thioether N-14) | 
